Data as given in article PMC12613123, “Fabrication of Disposable Thin-Film Electrodes via Shadow Mask Technique for Sensitive Point-of-Care Detection of C‑Reactive Protein, a Sepsis Biomarker”.

Molecular target: T1, C-reactive protein (CRP) (UniProt P02741 19-224)
T1 sequence: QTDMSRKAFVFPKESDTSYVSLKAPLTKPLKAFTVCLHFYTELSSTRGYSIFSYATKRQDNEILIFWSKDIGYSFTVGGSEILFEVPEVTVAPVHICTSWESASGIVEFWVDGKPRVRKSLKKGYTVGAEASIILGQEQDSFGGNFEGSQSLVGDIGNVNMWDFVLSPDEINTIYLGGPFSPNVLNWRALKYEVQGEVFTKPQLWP
Assay: electrochemical aptasensor (CV, EIS); aptamer/MCH on gold thin-film electrode; ferro-/ferricyanide; CRP 0.02-0.9 ng/mL; Rct 1.78 to 2.8 kOhm; LOD 6.5 pg/mL (not a Kd); ferro-/ferricyanide redox couple; buffer, salt, pH and temperature not given in the held text (aptamer immobilization at 2-4 C)
Conditions: chain copies: 5

B1: CRP aptamer (44 nt) (ssDNA)
DNA: GCCTGTAAGGTGGTCGGTGTGGCGAGTGTGTTAGGAGAGATTGC
modifications: 5' HO-(CH2)6-S-S-(CH2)6 thiol linker (TCEP reduced), immobilized on gold with MCH backfill
binding result: binds
